Residue numbers refer to the chain shown, from its start. Numbers in names are those of the source.
B1: N298I (protein)
chain: MQLRNPELHLGCALALRFLALVSWDIPGARALDNGLARTPTMGWLHWERFMCNLDCQEEPDSCISEKLFMEMAELMVSEGWKDAGYEYLCIDDCWMAPQRDSEGRLQADPQRFPHGIRQLANYVHSKGLKLGIYADVGNKTCAGFPGSFGYYDIDAQTFADWGVDLLKFDGCYCDSLENLADGYKHMSLALNRTGRSIVYSCEWPLYMWPFQKPNYTEIRQYCNHWRNFADIDDSWKSIKSILDWTSFNQERIVDVAGPGGWNDPDMLVIGNFGLSWNQQVTQMALWAIMAAPLFMSIDLRHISPQAKALLQDKDVIAINQDPLGKQGYQLRQGDNFEVWERPLSGLAWAVAMINRQEIGGPRSYTIAVASLGKGVACNPACFITQLLPVKRKLGFYEWTSRLRSHINPTGTVLLQLENTMQMSLKDLL
B2: A307G (protein)
chain: B1 chain with I298N, A307G
B3: Q306L (protein)
chain: B1 chain with I298N, Q306L
B4: K308I (protein)
chain: B1 chain with I298N, K308I
B5: A307S (protein)
chain: B1 chain with I298N, A307S
B6: H302Y (protein)
chain: B1 chain with I298N, H302Y
B7: A307V (protein)
chain: B1 chain with I298N, A307V
B8: A307D (protein)
chain: B1 chain with I298N, A307D
B9: N298T (protein)
chain: B1 chain with I298T
B10: H302L (protein)
chain: B1 chain with I298N, H302L
B11: L300I (protein)
chain: B1 chain with I298N, L300I
B12: S304I (protein)
chain: B1 chain with I298N, S304I
B13: L300V (protein)
chain: B1 chain with I298N, L300V
B14: H302N (protein)
chain: B1 chain with I298N, H302N
B15: Q306E (protein)
chain: B1 chain with I298N, Q306E
B16: H302D (protein)
chain: B1 chain with I298N, H302D
B17: D299N (protein)
chain: B1 chain with I298N, D299N
B18: A307P (protein)
chain: B1 chain with I298N, A307P
B19: D299H (protein)
chain: B1 chain with I298N, D299H
B20: Q306P (protein)
chain: B1 chain with I298N, Q306P
B21: I303S (protein)
chain: B1 chain with I298N, I303S

Test system: mutant form of α-Gal A expressed in HEK-293 cells
Test: HEK assay (GLP HEK / Migalastat Amenability Assay): α-Gal A activity in lysates of transiently transfected HEK-293 cells incubated with or without 10 μM migalastat
Assay type: cell-based, human
Settings: 10 μM migalastat versus baseline
Summary of the method: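 Activity reported as 4-MU released (nmol/mg/hr), mean±SEM, from lysates of transiently transfected HEK-293 cells expressing mutant α-Gal A, cultured with or without 10 μM migalastat.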

Row | Molecule | Absolute increase (% WT) | Relative increase
1 | B1 | 34.9 | 4.7
2 | B2 | 23.4 | 1.5
3 | B3 | 19.6 | 1.3
4 | B4 | 24.2 | 1.5
5 | B5 | 27.7 | 1.3
6 | B6 | 25.3 | 1.4
7 | B7 | 34.7 | 2.3
8 | B8 | 35.9 | 1.3
9 | B9 | 14.2 | 1.2
10 | B10 | 24.6 | 1.4
11 | B11 | 34.4 | 2.6
12 | B12 | 13.9 | 1.5
13 | B13 | 14.0 | 13.2
14 | B14 | 30.2 | 1.3
15 | B15 | 19.7 | 1.2
16 | B16 | 25.8 | 1.3
17 | B17 | 7.8 | 1.2
18 | B18 | 12.3 | 1.4
19 | B19 | 22.1 | 23.5
20 | B20 | 30.0 | 1.5
21 | B21 | 3.8 | 

Same assay, conditions: absence of migalastat; percentage of baseline wild-type α-Gal A activity; mean ± SEM

Row | Molecule | Baseline α-Gal A activity (% WT)
22 | B1 | 9.2 ± 0.7
23 | B2 | 52.9 ± 2.5
24 | B3 | 56.9 ± 4
25 | B4 | 48.6 ± 3.9
26 | B5 | 85.9 ± 4.5
27 | B6 | 59 ± 3.5
28 | B7 | 27.5 ± 2
29 | B8 | 126 ± 5.7
30 | B9 | 61.2 ± 4.7
31 | B10 | 60.7 ± 5.1
32 | B11 | 20.7 ± 0.9
33 | B12 | 30.6 ± 1.4
34 | B13 | 1.3 ± 0.2
35 | B14 | 91.2 ± 4.3
36 | B15 | 82 ± 2.8
37 | B16 | 95.1 ± 5.8
38 | B17 | 29.2 ± 4.7
39 | B18 | 32.8 ± 1.7
40 | B19 | 1 ± 0.1
41 | B20 | 57.4 ± 2.8

Same assay, conditions: lysates of HEK-293 cells transiently transfected with the mutant form, incubated 5 days in absence of migalastat; mean ± SEM

Row | Molecule | Baseline α-Gal A activity [nmol/mg/h] | Baseline α-Gal A activity (nmol/mg/hr)
42 | B1 | 2942 ± 262 | 
43 | B2 | 17871 ± 1029 | 
44 | B3 | 19792 ± 1899 | 
45 | B4 | 19195 ± 1555 | 
46 | B5 | 29300 ± 2037 | 
47 | B6 | 22554 ± 1372 | 
48 | B7 | 11478 ± 1200 | 
49 | B8 | 42522 ± 2430 | 
50 | B9 | 20581 ± 1736 | 
51 | B10 | 24188 ± 1797 | 
52 | B11 | 7328 ± 448 | 
53 | B12 | 11675 ± 939 | 
54 | B13 | 406 ± 48 | 
55 | B14 | 31958 ± 1777 | 
56 | B15 | 31745 ± 2212 | 
57 | B16 | 32677 ± 1437 | 
58 | B17 | 11973 ± 1961 | 
59 | B18 | 11388 ± 905 | 
60 | B19 | 358 ± 36 | 
61 | B20 | 19933 ± 1648 | 
62 | B21 |  | BLD (“BLD” indicates that the mean α-Gal A activity was below the limit of detection (<142 nmol/mg/hr))

Same assay, conditions: lysates of HEK-293 cells transiently transfected with the mutant form, incubated 5 days with 10 μM migalastat; mean ± SEM

Row | Molecule | 10 μM migalastat α-Gal A activity [nmol/mg/h]
63 | B1 | 13906 ± 535
64 | B2 | 26053 ± 1631
65 | B3 | 26515 ± 1960
66 | B4 | 29251 ± 2026
67 | B5 | 38558 ± 2274
68 | B6 | 31688 ± 1241
69 | B7 | 25989 ± 2015
70 | B8 | 54502 ± 3031
71 | B9 | 25249 ± 1705
72 | B10 | 34251 ± 1760
73 | B11 | 19317 ± 757
74 | B12 | 17257 ± 1837
75 | B13 | 5354 ± 203
76 | B14 | 42296 ± 2028
77 | B15 | 39019 ± 2405
78 | B16 | 41716 ± 1847
79 | B17 | 14668 ± 809
80 | B18 | 15572 ± 1124
81 | B19 | 8424 ± 875
82 | B20 | 29495 ± 1671
83 | B21 | 1496 ± 117

Same assay, conditions: with 10 μM migalastat, 5 days; percentage of baseline wild-type α-Gal A activity; mean ± SEM

Row | Molecule | 10 μM migalastat α-Gal A activity (% WT)
84 | B1 | 44.1 ± 1.8
85 | B2 | 76.3 ± 3.1
86 | B3 | 76.4 ± 3.4
87 | B4 | 72.7 ± 3.6
88 | B5 | 113.6 ± 5.2
89 | B6 | 84.2 ± 5.2
90 | B7 | 62.2 ± 3.3
91 | B8 | 161.9 ± 8.6
92 | B9 | 75.4 ± 4.3
93 | B10 | 85.3 ± 4.7
94 | B11 | 55.1 ± 2
95 | B12 | 44.6 ± 2.4
96 | B13 | 15.3 ± 0.6
97 | B14 | 121.4 ± 6.2
98 | B15 | 101.7 ± 4.2
99 | B16 | 120.8 ± 6.6
100 | B17 | 37.1 ± 2.9
101 | B18 | 45.2 ± 2.1
102 | B19 | 23.1 ± 2.4
103 | B20 | 87.5 ± 4.8
104 | B21 | 3.8 ± 0.3
